The results in this text go back to PMC4728126, “Stable G protein-effector complexes in striatal neurons: mechanism of assembly and role in neurotransmitter signaling” (eLife, 2015).

This test concerns the target adenylyl cyclase type 5 (mouse (endogenous in striatum)) (UniProt P84309).

Sequence of Gαs-GTPγS (P63092 whole entry): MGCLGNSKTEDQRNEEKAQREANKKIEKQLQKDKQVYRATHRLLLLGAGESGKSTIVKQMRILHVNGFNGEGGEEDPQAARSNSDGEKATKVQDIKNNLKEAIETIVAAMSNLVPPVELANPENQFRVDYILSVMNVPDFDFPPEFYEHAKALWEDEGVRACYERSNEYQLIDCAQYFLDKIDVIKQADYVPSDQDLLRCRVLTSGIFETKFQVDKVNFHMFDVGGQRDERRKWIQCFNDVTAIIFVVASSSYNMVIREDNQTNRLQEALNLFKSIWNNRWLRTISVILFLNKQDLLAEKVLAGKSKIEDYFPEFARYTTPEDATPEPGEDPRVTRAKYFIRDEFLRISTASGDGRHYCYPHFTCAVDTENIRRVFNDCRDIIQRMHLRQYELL
Sequence of adenylyl cyclase type 5 (mouse (endogenous in striatum)) (P84309 whole entry): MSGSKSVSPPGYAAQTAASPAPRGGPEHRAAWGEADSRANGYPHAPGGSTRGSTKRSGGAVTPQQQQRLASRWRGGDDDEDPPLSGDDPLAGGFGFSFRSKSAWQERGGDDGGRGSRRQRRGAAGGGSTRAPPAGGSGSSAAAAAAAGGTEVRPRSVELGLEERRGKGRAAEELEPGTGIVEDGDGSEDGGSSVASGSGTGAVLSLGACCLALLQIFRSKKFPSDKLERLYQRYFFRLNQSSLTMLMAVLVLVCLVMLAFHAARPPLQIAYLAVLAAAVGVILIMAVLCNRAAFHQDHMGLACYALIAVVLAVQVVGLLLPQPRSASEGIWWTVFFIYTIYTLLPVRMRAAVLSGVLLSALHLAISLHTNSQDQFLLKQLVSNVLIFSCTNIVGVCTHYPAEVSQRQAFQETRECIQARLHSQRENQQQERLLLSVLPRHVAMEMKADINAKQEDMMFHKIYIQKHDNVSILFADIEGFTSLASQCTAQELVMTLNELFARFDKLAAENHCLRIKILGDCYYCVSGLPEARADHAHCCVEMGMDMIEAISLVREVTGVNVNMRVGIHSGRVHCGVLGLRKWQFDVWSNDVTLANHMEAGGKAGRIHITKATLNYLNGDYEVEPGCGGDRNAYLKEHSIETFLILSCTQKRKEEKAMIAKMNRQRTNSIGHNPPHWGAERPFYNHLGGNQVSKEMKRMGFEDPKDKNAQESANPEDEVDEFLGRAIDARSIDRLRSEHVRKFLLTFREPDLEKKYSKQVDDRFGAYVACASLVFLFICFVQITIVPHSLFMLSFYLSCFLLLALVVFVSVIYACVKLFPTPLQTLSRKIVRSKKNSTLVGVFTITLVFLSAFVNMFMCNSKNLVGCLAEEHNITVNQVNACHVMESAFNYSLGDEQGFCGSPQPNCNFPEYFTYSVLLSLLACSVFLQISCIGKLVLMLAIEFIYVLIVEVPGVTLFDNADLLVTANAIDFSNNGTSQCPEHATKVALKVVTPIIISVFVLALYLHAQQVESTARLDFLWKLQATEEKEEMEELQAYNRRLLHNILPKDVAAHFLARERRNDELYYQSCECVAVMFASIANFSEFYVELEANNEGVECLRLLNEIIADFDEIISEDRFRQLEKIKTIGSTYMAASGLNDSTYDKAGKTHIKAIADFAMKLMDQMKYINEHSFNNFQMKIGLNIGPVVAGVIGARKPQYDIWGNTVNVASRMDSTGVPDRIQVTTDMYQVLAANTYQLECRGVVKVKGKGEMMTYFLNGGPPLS

On to “Gαs-GTPγS (from UniProt P63092 1-394) (natural protein)”, for which the EC50 of Gαs-GTPγS-mediated activation of adenylyl cyclase in striatal membranes, PhLP1-treated reaction (0.5 μM purified PhLP1) is 22.3 nM and the EC50 of Gαs-GTPγS-mediated activation of adenylyl cyclase in striatal membranes, control reaction came out at 16.2 nM.
